Two molecules from patent publication US20240009242A1 (STARKAGE THERAPEUTICS, published 2024) can be followed below.

Ends that are not written are not given here.

The target in one assay is T1, hDEP1 Peptide #1 (human, also: conjugated to BSA).
T1 peptide: AGGTPSPIPDPSV
As to the kind of experiment: indirect ELISA, purified soluble scFv.

The target in another assay is T2, hDEP1 Peptide #2 (human, also: conjugated to BSA).
T2 peptide: PVLGDIEGTPGFLQVHT
Description: indirect ELISA, purified soluble scFv. (In general: ELISA stands for enzyme-linked immunosorbent assay.)

The target of a further assay is T3, hDEP1 Peptide #3 (human, also: conjugated to BSA).
T3 peptide: EVVPKEPALVLKWT
Description: indirect ELISA, purified soluble scFv.

Assay [1] deals with T4, hDEP1 Peptide #4 (human, also: conjugated to BSA).
T4 construct: also called hDEP1 Peptide #4/BSA
T4 peptide: ADVLKYTYEDFKKGASDT
As to the kind of experiment: indirect ELISA, purified soluble scFv.

Assay [2] deals with T5, murine counterpart of hDEP1-ECD-His (murine, UniProt Q64455 524-870).
T5 construct: also called mDEP1
T5 sequence: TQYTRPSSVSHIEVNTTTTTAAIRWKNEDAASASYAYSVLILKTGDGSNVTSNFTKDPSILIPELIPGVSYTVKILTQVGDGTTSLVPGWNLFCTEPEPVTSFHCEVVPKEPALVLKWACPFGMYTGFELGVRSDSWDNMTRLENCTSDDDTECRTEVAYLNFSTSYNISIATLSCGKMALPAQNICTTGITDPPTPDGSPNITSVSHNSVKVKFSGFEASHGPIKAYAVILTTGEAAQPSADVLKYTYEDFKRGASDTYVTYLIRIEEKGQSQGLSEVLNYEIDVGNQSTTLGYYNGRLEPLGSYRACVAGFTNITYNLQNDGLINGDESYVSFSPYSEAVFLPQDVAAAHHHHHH
Description: indirect ELISA, purified soluble scFv.

For a further assay, the target named is T6, BSA (UniProt P02769 25-607).
T6 construct: Negative control antigen in the ELISAs; also called negative control (BSA only)
Description: indirect ELISA, purified soluble scFv.

The target of a further assay is T7, hDEP1-ECD-His (human, UniProt Q12913 621-969).
T7 construct: Produced in CHO cells, purified on Ni-NTA; also called recombinant protein hDEP1-ECD-His
T7 sequence: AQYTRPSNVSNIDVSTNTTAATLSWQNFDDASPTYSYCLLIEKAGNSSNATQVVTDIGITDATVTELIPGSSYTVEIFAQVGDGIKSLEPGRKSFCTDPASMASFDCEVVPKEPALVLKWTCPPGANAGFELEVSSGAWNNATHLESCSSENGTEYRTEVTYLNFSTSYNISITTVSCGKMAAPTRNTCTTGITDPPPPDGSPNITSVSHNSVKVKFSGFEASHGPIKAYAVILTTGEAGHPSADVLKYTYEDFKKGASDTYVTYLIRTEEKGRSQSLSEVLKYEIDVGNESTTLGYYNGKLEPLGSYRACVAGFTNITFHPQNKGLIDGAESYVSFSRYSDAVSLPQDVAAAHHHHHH
As to the kind of experiment: indirect ELISA, purified soluble scFv.

For assay [3], the target named is T4, hDEP1 Peptide #4. Description: ELISA, soluble scFv produced in microtiter plate. Here is the method:
96 isolated clones from the second, third and fourth rounds of panning were hand-picked and used to produce the respective soluble scFv in microtiter plate. Each clone was then tested in ELISA against hDEP1 Peptide #4/BSA.

T6 sequence (P02769 25-607 limits assumed): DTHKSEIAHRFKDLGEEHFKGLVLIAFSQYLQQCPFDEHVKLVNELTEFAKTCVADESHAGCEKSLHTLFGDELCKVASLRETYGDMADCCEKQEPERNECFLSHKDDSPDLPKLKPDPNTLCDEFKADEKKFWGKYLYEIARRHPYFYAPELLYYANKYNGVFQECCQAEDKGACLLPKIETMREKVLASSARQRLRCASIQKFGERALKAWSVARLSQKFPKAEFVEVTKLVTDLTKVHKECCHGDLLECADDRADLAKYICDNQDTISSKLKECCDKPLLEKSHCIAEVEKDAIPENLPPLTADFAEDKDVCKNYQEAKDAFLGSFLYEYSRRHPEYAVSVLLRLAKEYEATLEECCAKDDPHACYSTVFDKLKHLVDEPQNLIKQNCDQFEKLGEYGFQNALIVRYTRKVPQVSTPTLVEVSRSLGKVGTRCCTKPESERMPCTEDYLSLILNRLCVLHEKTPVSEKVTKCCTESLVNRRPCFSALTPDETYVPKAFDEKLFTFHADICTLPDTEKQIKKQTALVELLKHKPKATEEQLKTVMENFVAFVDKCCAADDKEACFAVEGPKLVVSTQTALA

B1: 5738-13-R4A-D11 (scFv, V domains shown)
VH: QVQLKESGGGLVQPGRSLKLSCAASGFSFGDYNMAWVRQAPKKGLEWVATISYDDYRTYYRDSVKGRFTISRDDAKATLYLQMDSLRSEDTATYYCARQGGIIRGVWFPYWGQGTLVTVSS
VL: DIQMTQTPASLSASLEEIVTITCQASQDIGNWLAWYQQKPGKSPHLLIYGATTLADGVPSRFSGSRSGTQYSLKISRLQAEDIGIYYCQQASSAPWTFGGGTKLELK
notes: anti-hDEP1 scFv, rat 13 library, format VH/VL-6xHis-Flag
In the case of B1, the binding result (with hDEP1 Peptide #1; in the assay with hDEP1 Peptide #2; in the assay with hDEP1 Peptide #3; with hDEP1 Peptide #4 [1]; in assay [2]; with BSA) was “no binding” each time.

B2: 5738-10-R4A-G12 (scFv, V domains shown)
VH: QVQLKESGAELAKPGSSVKISCKASGYTFTSDSISWIKQTTGQGLEYIGYIHPGSGVTNYNEKFKGKATLTVDKSSSTAFMQLSSLTPDDSAIYYCARYFDYWGQGVMVTVSS
VL: DILMTQSPSSMSVSLGDTVTITCRASQDVGIYVNWFQQKPGKSPRRMIYRATNLADGVPSRFSGSRSGSDYSLTISSLESEDVADYHCLQYDEYPPTFGGGTKLELK
notes: anti-hDEP1 scFv, rat 10 library, format VH/VL-6xHis-Flag
For B2, the binding result was “no binding” with hDEP1 Peptide #1; “no binding” with hDEP1 Peptide #2; “no binding” with hDEP1 Peptide #3; “binds” with hDEP1-ECD-His; “no binding” in assay [2]; “no binding” in the assay with BSA. The binding result with hDEP1 Peptide #4 [3] is recorded as “binds”.
